Patent US20190142971A1, “FORMULATION AND DELIVERY OF MODIFIED NUCLEOSIDE, NUCLEOTIDE, AND NUCLEIC ACID COMPOSITIONS” (ModernaTX, Inc., priority 2013, published 2019)

Assays:
[1] = system: non-human primates (cynomolgus monkey); assay: Example 22: LNP IV in non-human primates, serum G-CSF/EPO ELISA (Tables 38, 39); type: in vivo
Method: LNP formulations, shown in Table 33 (above), were administered to non-human primates (NHP) (cynomolgus monkey) (n=2) as intravenous injection (IV). The NHP were administered a single modified mRNA IV dose of 0.5 mg/kg, 0.05 mg/kg or 0.005 mg/kg of G-CSF or EPO in a dose volume of 0.5 mL/kg. The NHPs were bled before dosing with the modified mRNA LNP formulations to determine protein expression in the serum and a baseline complete blood count. After administration with the G-CSF modified mRNA formulation the NHP were bled at 8, 24, 48 and 72 hours to determined protein expression. After administration with the EPO modified mRNA formulation the NHP were bled at 8, 24, 48, 72 hours and 7 days to determined protein expression.
Samples collected from the NHPs after they were administered with G-CSF or EPO modified mRNA formulations were analyzed by ELISA to determine protein expression. Neutrophil and reticulocyte count was also determined pre-dose, 24 hours, 3 days, 7 days, 14 days and 18 days after administration of the modified G-CSF or EPO formulation.

[2] = system: non-human primates (cynomolgus monkey); assay: Example 22: NHP serum chemistry ALT and AST (Tables 45, 46); type: in vivo
[3] = 0.005 mg/kg, 2 days, Female NHP
[4] = 0.005 mg/kg, 4 days, Female NHP
[5] = 0.005 mg/kg, 7 days, Female NHP
[6] = 0.005 mg/kg, 14 days, Female NHP
[7] = 0.005 mg/kg, Pre-dose, Female NHP
[8] = 0.005 mg/kg, Pre-dose, Male NHP
[9] = 0.05 mg/kg, 14 days, Female NHP
[10] = 0.05 mg/kg, Pre-dose, Female NHP
[11] = 0.5 mg/kg, Pre-dose, Female NHP

B1: G-CSF: modified mRNA encoding human G-CSF, SEQ ID NO: 4, Cap1, fully modified with 5-methylcytosine and pseudouridine; LNP-formulated in Examples 16-22 (nucleic acid)
chain: GGGAAAUAAGAGAGAAAAGAAGAGUAAGAAGAAAUAUAAGAGCCACCAUGGCCGGUCCCGCGACCCAAAGCCCCAUGAAACUUAUGGCCCUGCAGUUGCUGCUUUGGCACUCGGCCCUCUGGACAGUCCAAGAAGCGACUCCUCUCGGACCUGCCUCAUCGUUGCCGCAGUCAUUCCUUUUGAAGUGUCUGGAGCAGGUGCGAAAGAUUCAGGGCGAUGGAGCCGCACUCCAAGAGAAGCUCUGCGCGACAUACAAACUUUGCCAUCCCGAGGAGCUCGUACUGCUCGGGCACAGCUUGGGGAUUCCCUGGGCUCCUCUCUCGUCCUGUCCGUCGCAGGCUUUGCAGUUGGCAGGGUGCCUUUCCCAGCUCCACUCCGGUUUGUUCUUGUAUCAGGGACUGCUGCAAGCCCUUGAGGGAAUCUCGCCAGAAUUGGGCCCGACGCUGGACACGUUGCAGCUCGACGUGGCGGAUUUCGCAACAACCAUCUGGCAGCAGAUGGAGGAACUGGGGAUGGCACCCGCGCUGCAGCCCACGCAGGGGGCAAUGCCGGCCUUUGCGUCCGCGUUUCAGCGCAGGGCGGGUGGAGUCCUCGUAGCGAGCCACCUUCAAUCAUUUUUGGAAGUCUCGUACCGGGUGCUGAGACAUCUUGCGCAGCCGUGAAGCGCUGCCUUCUGCGGGGCUUGCCUUCUGGCCAUGCCCUUCUUCUCUCCCUUGCACCUGUACCUCUUGGUCUUUGAAUAAAGCCUGAGUAGGAAG
modifications: Cap1, 5-methylcytosine, pseudouridine
[1]; 0.005 mg/kg IV, 8 hours
  Female NHP Serum G-CSF / EPO Concentration: 559 pg/mL
  Male NHP Serum G-CSF / EPO Concentration: 700 pg/mL
[1]; 0.005 mg/kg IV, 24 hours
  Female NHP Serum G-CSF / EPO Concentration: 155 pg/mL
  Male NHP Serum G-CSF / EPO Concentration: <39 pg/mL
[1]; 0.005 mg/kg IV, 48 hours
  Female NHP Serum G-CSF / EPO Concentration: <39 pg/mL
  Male NHP Serum G-CSF / EPO Concentration: <39 pg/mL
[1]; 0.005 mg/kg IV, 72 hours
  Female NHP Serum G-CSF / EPO Concentration: <39 pg/mL
  Male NHP Serum G-CSF / EPO Concentration: <39 pg/mL
[1]; 0.005 mg/kg IV, Pre-bleed
  Female NHP Serum G-CSF / EPO Concentration: <39 pg/mL
  Male NHP Serum G-CSF / EPO Concentration: <39 pg/mL
[1]; 0.05 mg/kg IV, 8 hours
  Female NHP Serum G-CSF / EPO Concentration: 3,289 pg/ml
  Male NHP Serum G-CSF / EPO Concentration: 1,722 pg/ml
[1]; 0.05 mg/kg IV, 24 hours
  Female NHP Serum G-CSF / EPO Concentration: 722 pg/mL
  Male NHP Serum G-CSF / EPO Concentration: 307 pg/mL
[1]; 0.05 mg/kg IV, 48 hours
  Female NHP Serum G-CSF / EPO Concentration: <39 pg/mL
  Male NHP Serum G-CSF / EPO Concentration: <39 pg/mL
[1]; 0.05 mg/kg IV, 72 hours
  Female NHP Serum G-CSF / EPO Concentration: <39 pg/mL
  Male NHP Serum G-CSF / EPO Concentration: <39 pg/mL
[1]; 0.05 mg/kg IV, Pre-bleed
  Female NHP Serum G-CSF / EPO Concentration: <39 pg/mL
  Male NHP Serum G-CSF / EPO Concentration: <39 pg/mL
[1]; 0.5 mg/kg IV, 8 hours
  Female NHP Serum G-CSF / EPO Concentration: 43,525 pg/ml
  Male NHP Serum G-CSF / EPO Concentration: 43,594 pg/ml
[1]; 0.5 mg/kg IV, 24 hours
  Female NHP Serum G-CSF / EPO Concentration: 11,374 pg/ml
  Male NHP Serum G-CSF / EPO Concentration: 3,628 pg/ml
[1]; 0.5 mg/kg IV, 48 hours
  Female NHP Serum G-CSF / EPO Concentration: 1,100 pg/ml
  Male NHP Serum G-CSF / EPO Concentration: 833 pg/mL
[1]; 0.5 mg/kg IV, 72 hours
  Female NHP Serum G-CSF / EPO Concentration: <39 pg/mL
  Male NHP Serum G-CSF / EPO Concentration: 306 pg/mL
[1]; 0.5 mg/kg IV, Pre-bleed
  Female NHP Serum G-CSF / EPO Concentration: <39 pg/mL
  Male NHP Serum G-CSF / EPO Concentration: <39 pg/mL
[1]; NHP IV
  protein expression not detected beyond: ≤ 72 h
[2]; [3]
  ALT: 32 U/L
  AST: 34 U/L
[2]; 0.005 mg/kg, 2 days, Male NHP
  ALT: 39 U/L
  AST: 70 U/L
[2]; [4]
  ALT: 58 U/L
  AST: 36 U/L
[2]; 0.005 mg/kg, 4 days, Male NHP
  ALT: 48 U/L
  AST: 39 U/L
[2]; [5]
  ALT: 55 U/L
  AST: 31 U/L
[2]; 0.005 mg/kg, 7 days, Male NHP
  ALT: 29 U/L
  AST: 28 U/L
[2]; [6]
  ALT: 46 U/L
  AST: 20 U/L
[2]; 0.005 mg/kg, 14 days, Male NHP
  ALT: 44 U/L
  AST: 39 U/L
[2]; [7]
  ALT: 51 U/L
  AST: 54 U/L
[2]; [8]
  ALT: 43 U/L
  AST: 35 U/L
[2]; 0.05 mg/kg, 2 days, Female NHP
  ALT: 39 U/L
  AST: 34 U/L
[2]; 0.05 mg/kg, 2 days, Male NHP
  ALT: 82 U/L
  AST: 95 U/L
[2]; 0.05 mg/kg, 4 days, Female NHP
  ALT: 56 U/L
  AST: 42 U/L
[2]; 0.05 mg/kg, 4 days, Male NHP
  ALT: 88 U/L
  AST: 69 U/L
[2]; 0.05 mg/kg, 7 days, Female NHP
  ALT: 73 U/L
  AST: 52 U/L
[2]; 0.05 mg/kg, 7 days, Male NHP
  ALT: 73 U/L
  AST: 62 U/L
[2]; [9]
  ALT: 31 U/L
  AST: 20 U/L
[2]; 0.05 mg/kg, 14 days, Male NHP
  ALT: 50 U/L
  AST: 59 U/L
[2]; [10]
  ALT: 53 U/L
  AST: 33 U/L
[2]; 0.05 mg/kg, Pre-dose, Male NHP
  ALT: 58 U/L
  AST: 99 U/L
[2]; 0.5 mg/kg, 2 days, Female NHP
  ALT: 209 U/L
  AST: 294 U/L
[2]; 0.5 mg/kg, 2 days, Male NHP
  ALT: 63 U/L
  AST: 196 U/L
[2]; 0.5 mg/kg, 4 days, Female NHP
  ALT: 98 U/L
  AST: 63 U/L
[2]; 0.5 mg/kg, 4 days, Male NHP
  ALT: 70 U/L
  AST: 67 U/L
[2]; 0.5 mg/kg, 7 days, Female NHP
  ALT: 149 U/L
  AST: 68 U/L
[2]; 0.5 mg/kg, 7 days, Male NHP
  ALT: 41 U/L
  AST: 53 U/L
[2]; 0.5 mg/kg, 14 days, Female NHP
  ALT: 145 U/L
  AST: 67 U/L
[2]; 0.5 mg/kg, 14 days, Male NHP
  ALT: 43 U/L
  AST: 47 U/L
[2]; [11]
  ALT: 216 U/L
  AST: 47 U/L
[2]; 0.5 mg/kg, Pre-dose, Male NHP
  ALT: 29 U/L
  AST: 32 U/L
